From patent US20240049668A1 (VILMORIN AND CIE, published 2024)
Changes are numbered by the printed parent chain. Names and notes keep the numbering of the source. Like-named read-outs stand apart in the source and are kept apart here.

Tests used:
Assay in all cases: cell-based or functional assay
[1] = molecular target: T1, Movement Protein of ToBRFV (Tomato Brown Rugose Fruit Virus …, UniProt A0A0S2SZW1 1-266)
T1 sequence: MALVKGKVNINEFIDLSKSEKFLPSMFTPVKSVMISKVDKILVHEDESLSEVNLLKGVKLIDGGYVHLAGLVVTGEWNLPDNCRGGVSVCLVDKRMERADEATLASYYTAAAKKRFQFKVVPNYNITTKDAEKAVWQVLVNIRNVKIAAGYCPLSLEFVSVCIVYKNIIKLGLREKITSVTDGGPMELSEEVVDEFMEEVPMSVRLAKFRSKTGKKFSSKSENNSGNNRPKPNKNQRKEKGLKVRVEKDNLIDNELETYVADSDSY

[2] = molecular target: T1, Movement Protein of ToBRFV; remark: listed apart in the source
[3] = molecular target: T1, Movement Protein of ToBRFV; remark: listed apart in the source
[4] = molecular target: T1, Movement Protein of ToBRFV; remark: listed apart in the source
[5] = molecular target: T1, Movement Protein of ToBRFV; remark: listed apart in the source
[6] = molecular target: T1, Movement Protein of ToBRFV; remark: listed apart in the source

B1: TM2-14-25 encoded by Tm2-14-25 (receptor)
chain: MAEILLTSVINKSVEIAGNLLIQEGKRLYWLKEDIDWLQREMRHIRSYVDNAKAKEAGGDSRVKNLLKDIQELAGDVEDLLDDFLPKIQQSNKFNYCLKRSSFADEFAMEIEKIKRRVVDIDRIRKTYNIIDTDNNNDDCVLLDRRRLFLHADETEIIGLDDDFNMLQAKLLNQDLHYGVVSIVGMPGLGKTTLAKKLYRLIRDQFECSGLVYVSQQPRASEILLDIAKQIGLTEQKMKENLEDNLRSLLKIKRYVILLDDIWDVEIWDDLKLVLPECDSKVGSRMIITSRNSNVGRYIGGESSLHALQPLESEKSFELFTKKIFNFDDNNSWANASPDLVNIGRNIVGRCGGIPLAIVVTAGMLRARERTEHAWNRVLESMGHKVQDGCAKVLALSYNDLPIASRPCFLYFGLYPEDHEIRAFDLINMWIAEKFIVVNSGNRREAEDLAEDVLNDLVSRNLIQLAKRTYNGRISSCRIHDLLHSLCVDLAKESNFFHTAHDAFGDPGNVARLRRITFYSDNVMIEFFRSNPKLEKLRVLFCFAKDPSIFSHMAYFDFKLLHTLVVVMSQSFQAYVTIPSKFGNMTCLRYLRLEGNICGKLPNSIVKLTRLETIDIDRRSLIQPPSGVWESKHLRHLCYRDYGQACNSCFSISSLYPNIYSLHPNNLQTLMWIPDKFFEPRLLHRLINLRKLGILGVSNSTVKMLSIFSPVLKALEVLKLSFSSDPSEQIKLSSYPHIAKLHLNVNRTMALNSQSFPPNLIKLTLAYFSVDRYILAVLKTFPKLRKLKMFICKYNEEKMDLSGEANGYSFPQLEVLHIHSPNGLSEVTCTDDVSMPKLKKLLLTGFHRRISLSERLKKLSK
- HR when expressed with MP Rugose [1]: 4 HR scale 0-4
- HR to MP Rugose [2]: 3 HR scale 0-4
- HR to MP Rugose [3]: 4 HR scale 0-4

B2: TM-2-2 variant pJL 466 (F655L) (receptor)
chain: B1 chain with R848C
- HR when expressed with MP Rugose [1]: < 1 HR scale 0-4

B3: TM2-467 encoded by Tm2-467 (receptor)
chain: B1 chain with L655F
- HR when expressed with MP Rugose [1]: 4 HR scale 0-4

B4: TM-2-2 protein (product of the Tm-2-2 gene) (receptor)
chain: B1 chain with L655F, R848C
- HR when expressed with MP Rugose [1]: < 1 HR scale 0-4
- HR when expressed with MP Rugose [4]: < 1 HR scale 0-4
- HR to MP Rugose [2]: < 1 HR scale 0-4
- HR to MP Rugose [5]: < 1 HR scale 0-4
- HR to MP Rugose [6]: < 1 HR scale 0-4
- HR to MP Rugose [3]: < 1 HR scale 0-4
